B1: 3T0478 (antibody, V domains shown)
VH: VQLLQESGPGLVKPSETLSLTCTVSGGSISSYYWNWIRQSPGKGLEWMGYIYYTGSTNYNPSLKSRVTISVDLSKNQFSLKLRSVTAADTAVYYCARDKRYYDSSGYSHFDYWGQGILVTVSS
VL: QSVLTQPPSASGTPGQRVTIFCSGSSFNIGSNYVYWYQQLPGTAPKLLIYRNNERPSGVPDRFSGSKSGTSASLDISGLRSEDEADYSCAAWDGSLSGPVFGGGTKLTVL
B2: 3T0673 (antibody, V domains shown)
VH: EVQLVESGGGRVKPGGSLRVSCAVSGITFTNAWMTWVRQAPGKGLEWLGRIKSRSDGGQSDLIAPVKGRFTISRDDSKNILYLQMNNLKTEDTGLYFCTTYYYDNGGSYSNPWGLGTLVTVSS
VL: QSVLTQPPSVSGAPGQRVTISCTGSYSNIGAGYDVLWYQQLPGTAPKLLIYGNNKRPSGVPDRFSGSKSGTSASLAITGLQAEDEADYYCQSYDSRLRDFGIFGGGTKLTVL
B3: 3T0338 (antibody, V domains shown)
VH: EVQLVESGGALVKPGGSLRLSCAASGFSFKTAWMNWVRQAPGKGLEWVGRIKSRADGGTSDYSASVKGRFTFSRDDSKNTLYLQMTSLKTEDTGMYYCTTLNLGGGFPGEWRSVWGQGTTVTVSS
VL: B2 VL with A31S, T44A, K55N, G79E, A86G, F100S, G101W, I102V, K108R
B4: 5T0278 (antibody, V domains shown)
VH: EVQLVESGGGLVKPGGSLRVSCAASGFPFTDAWMSWVRQAPGKGLEWVGRIKSNSDGGIPDYAAPVKGRFTISRDDSKRTLYLQMNSLKTEDTGYYYCYTLRFFGPGNSWGQGTLVTVSS
VL: B2 VL with V18I, L36S, Y38H, T44K, K55N, A76T, S95A, F100Q, G101V, I102V
B5: 4T0452 (antibody, V domains shown)
VH: EVQLVESGGGLVKPGGSLRISCAASGFSFSNAWMNWVRQAPGKGLEWVGRIKSVSDGGPIHYAAPVKGRFTISRDDSKKMLYLQMNSLKVDDTAVYYCATEPRGYDWGWGQGTLVTVSS
VL: B2 VL with L36Y, L41F, N54T, K55N, K68R, D87H, F100N, G101W, I102V, F103L
B6: 5T0451 (antibody, V domains shown)
VH: EVQLVESGGGLVKPGGSLRLSCAASGFTFTNAWMNWVRQAPGKGLEWIGRIKSKGDGGTADHAAPVRGRFIISRDDSKQMLYLQMTGLKSDDTAVYYCTRGPYDNFSGWRDYWGQGTLVTVSS
VL: B2 VL with Y26G, L36Q, L41H, L48V, D87H, S95A, F100S, G101W, I102V, K108Q
B7: 5T0209 (antibody, V domains shown)
VH: EVQLVDSGGGLVKPGGSLRLSCAASGFTFSKAWMSWVRQAPGKGLEWVGRIKSRTDGGTTDYAAPVRGRFTISRDDSKNTLFLQMNSLKPEDTAIYYCATDYYESRGYWGQGTLVTVSS
VL: B2 VL with Y26S, L36N, L41I, A73V, R98S, F100H, G101W, I102V
B8: 3T0253 (antibody)
heavy: EVQLVESGGGLVKPGRSLRISCAASGITFNKAWMNWVRLAPGKGLEWVGRIKSNGDGGKRDYAAPVTGRFTISRDDSKNTLYLQMNSLKTEDTAVYFRTTRHHRGMDVWGQGTTVTVSS
light: QSVLTQPPSVSGAPGQRVTISCTGSSSNIGAGYDVHWYQHLPGAAPKLLIYGDGSRPSGVPDRFSASKSGTSASLAITGLQAEDEADYYCQSYDSSLSDAVVFGGGTKLTVL
B9: 3T0202 (antibody, V domains shown)
VH: EVQLVESGGGLVQPGGSLRLSCAASGFKFRSYDMHWVRQRSGEGLEWVAAIGTAADTYYLGSVRGRFTISRENAKNSLYLQMDSLGAGDTAVYYCARAAFGAVFFDYWGQGTLVTVSS
VL: EIVLTQSPGTLSLSSGERATLSCRASQSISSSYLVWYQQKLGQAPRLLIYGASRRATGIPDRFSGSGSGTDFTLTISRLEPEDFAVYYCQQYGNSPITFGQGTRLEIK
B10: 1T0227 (antibody, V domains shown)
VH: EVQLVESGGGLVKPGGSLRLSCAASGFTFRNAWMNWVRQAPGKGLEWVGRIKSRADGGPTDYAAPVKGRFTISRDDSKNTLYLQMNSLKSEDTAVYYCTTHVPDYNSAYYWVYWGQGTLVTVSS
VL: QSVLTQPPSVSGAPGQRVTISCTGSSSNIGAGYDVYWYQQLPGTAPKLIIYGNNNRPSGVPDRFSASKSGPSASLAITGLQAEDEADYYCQSYDIRLSDNYVFGTGTKVTVL
B11: 4T0764 (antibody, V domains shown)
VH: QVQLQESGPGLVEPSETLSLTCTVSGASISSLFWSWIRQPPGKGLEWIGYIHSDGSTNYNPFLKSRVTISIDTSQNQFSLRLTSVTAADTAVYFCARGLLGSQDSWGQGTLVTVSS
VL: QSALTQPASVSGSPGQSITISCTGTSSDVGGYNYVSWYQQYPGKAPKLVIYEVTNRPSGVSNRFSGSKSGNTASLTISGLRAEDEADYHCSSYRTRNTHVIFGGGTKLTVL
B12: 1T0455 (antibody, V domains shown)
VH: EVQLVESGGGLVKPGESLRLSCAVSGLTFSNAWMNWVRQAPGKGLEWVGRIKSKSDGGAADYAAPVNARFTISRDDSKKTLYLQMNSLKTEDTGFYYCTTLYHSGQGTLVTVSS
VL: QSVLTQPPSVSGAPGQRVTISCTGSSSNIGAGYDVHWYQQLPGTAPKFVIYGNNNRPSGVPDRFSGSKSGTSASLAITGLQVEDEGDYYCQSYDSRLSDHVVFGGGTKLTVL
B13: 5T0465 (antibody, V domains shown)
VH: QVQLVQSGAEVREPGASVRISCKASGYTFTSASIHWVRQAPGQGLEWMGIIDPVVGKTRSERKFNGRLIMTRDTPTSTVYMELNSLRSDDTAMYYCARSGYYPRGMDVWGQGTTVTVSS
VL: SYELTQPPSVSVSPGQTASITCSGDKLGDEYVSWYQQKPGQSPVLVISRDTRRSSGIPERFSGSNSGNTATLTISGTQAMDEADYYCQAWDSSTAVVFGGGTKLTVL
B14: 3T0245 (antibody, V domains shown)
VH: EVQLVESGGDLVKPGGSLRLSCEASGFTFTNAWMNWVRQSPGKGLEWIGRVKSKSDGGAADYAAPVKGRFTISRDDSKNSVFLQMRSLKPEDTGVYYCATRVHYNGMDVWGRGTTVTVSS
VL: QSVLTQPPSVSGAPGQRVTISCAGSGSNIGAGYDVHWYQQLPGTAPKLLIYANHNRPSGVPDRFSGSKSGSSASLAITGLQAEDEADYYCQSYDSSLRDACVFGGGTKLTV
B15: 3T0553 (antibody, V domains shown)
VH: QVQLVESGGGVVQPGRSLRLSCAASGFTFTTCAMHWVRQAPGKGLEWVSVMWYDGSREYYADSVKGRFTISRDNSKNTLYLEMQSLRAEDTAVYYCARGGDLLVEVDSTDYYGLDVWGQGTTVTVSS
VL: DIQMTQSPSAMSASVGDRVTITCRASQGISHSLAWFQQKPGKVPKRLIYSASTLQSGVPSRFSGSGSGTEFTLTISSLQPEDFATYYCLQHNRYPWTFGQGTKVEIK
B16: 3T0611 (antibody, V domains shown)
VH: EVQLVESGGNLVQPGGSLRLSCAASGFTFRSYSMNWVRQAPGKGLEWVSYISSSASIIHYAESVQGRFTISRDNAKNSLFLQMNSLRAEDTAVYYCAGILDDYRDYGYDYWGQGTLVTVSS
VL: SYELTQPPSVSVSPGQTARITCSGDALPKQYAYWYQQRPGQAPVLVIYKDIERPSGIPERYSGSSSGAIVTLTISGAQAEDEADYYCQSSDNNGSYRVMFGGGTKLTVL
B17: 4T0444 (antibody, V domains shown)
VH: EVQLVVSGGGLVQPGGSLRLSCAASGFTLKSYDIHWVRQRPGEGLEWVAAIGAAGDTYFSGSVKGRFTISRENARNSLYLQMNSLGAGDTAIYYCARARFGDLALDYWGQGILVTVSS
VL: EIVLTQSPGTLSLSPGERATLSCRSSQSVSSNSLAWYQQKPGQAPRLLIYGASSRAAGIPDRFSGSGSGTDFTLTISRLQPEDFAVFFCHQYSSSPLTFGGGTKVEIK
B18: 3T0331 (antibody, V domains shown)
VH: EVQLLESGGGLVQPGGSLRLSCEASGFPLRDYAMSWVRQAPGRGLQWVSTIGGNDNAANYADSVKGRFTVSRDNSKSTIYLQMNSLRAEDTALYFCAKSVRLSRPSPFDLWGQGSLVTVSS
VL: EIVLTQSPATLSLSPGERATLSCRASQSVSTYLAWYQHQPGQAPRLLIYEASNRATGIPARFSGSGSGTEFTLTISSLEPEDVAVYYCQQRASWPLTFGGGTKVEIK
B19: 3T0650 (antibody, V domains shown)
VH: EVQLVQSGGGLVKPGGSLRLSCAASGFTFSNAWMNWVRQAPGKGLEWIGRVKSQTDRGTKDYAAPVKGRFSISRDDSKKMLYLQMNSLKIEDTGVYYCVATPHSWSVAWGQGTLVTVSS
VL: QSVLTQPPSVSGAPGQRVTISCTGSSSNIGAGYDVQWYQQFPGTAPKLLIYGNINRPSGVPDRFSGSKSGSSASLAITRLQAEDEADYYCQSYDSSLRDQWVFGGGTKLTVL
B20: 4T0243 (antibody, V domains shown)
VH: QVQLQESGPGLVKPSETLSLTCTVSGGSLSTYYWNWIRQPPGKGLEWIGYIYYSSLPKYSPTLKSRITISVDTSKNQFSLKLSSVTAADTAVYYCARAPRGYSSGKYNYYGLDVWSQGTTVTVSS
VL: SYELTQPPSVSVSPGHTATITCSGDALSKQFAYWYQQKPGQAPVLVISKDTERPSGIPGRFSGSSSGPTATLTISGVQAEDEADYYCQSADSSGGYYVFGSGTRVTVL

Numbering of substitutions follows the chain as printed.

The test concerns the target EBOV Mayinga (GenBank: NC_002549) (Zaire Ebolavirus (EBOV Mayinga)) (UniProt Q05320). Nature of the test: cell-based or functional assay.
UniProt Q05320, sequence (Q05320 33-676 limits assumed): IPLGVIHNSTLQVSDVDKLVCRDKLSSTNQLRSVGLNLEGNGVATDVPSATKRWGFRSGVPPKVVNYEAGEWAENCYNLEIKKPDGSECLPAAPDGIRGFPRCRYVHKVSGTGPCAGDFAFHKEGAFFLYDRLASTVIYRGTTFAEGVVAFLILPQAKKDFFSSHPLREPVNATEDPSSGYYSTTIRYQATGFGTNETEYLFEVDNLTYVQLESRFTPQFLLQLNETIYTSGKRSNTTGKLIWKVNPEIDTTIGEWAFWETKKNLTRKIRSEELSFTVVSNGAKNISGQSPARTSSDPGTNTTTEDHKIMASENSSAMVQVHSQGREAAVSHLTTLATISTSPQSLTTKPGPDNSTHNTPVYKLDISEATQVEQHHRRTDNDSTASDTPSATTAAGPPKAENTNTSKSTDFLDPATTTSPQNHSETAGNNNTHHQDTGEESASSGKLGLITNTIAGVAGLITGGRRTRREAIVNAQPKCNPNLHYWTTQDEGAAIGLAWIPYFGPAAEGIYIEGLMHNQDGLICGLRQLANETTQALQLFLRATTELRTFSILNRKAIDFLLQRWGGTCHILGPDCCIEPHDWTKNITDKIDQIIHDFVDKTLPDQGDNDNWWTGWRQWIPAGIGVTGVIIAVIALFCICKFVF
Take B1: the neutralization concentration (GMC, CPE reduction on Vero C1008 cells) turned out to be 0.78 µg/mL. Under B2 stands 0.53 µg/mL.

B3 displayed a neutralization concentration (GMC, CPE reduction on Vero C1008 cells) of 1.06 µg/mL. Under B4 stands 0.63 µg/mL; under B5, 0.88 µg/mL; under B6, 1.05 µg/mL. The figure for B7 is 1.77 µg/mL; for B8 it is 1.31 µg/mL; for B9 it is 0.53 µg/mL. Consider B10, for which the neutralization concentration (GMC, CPE reduction on Vero C1008 cells) stood at 1.86 µg/mL. The figure for B11 is 0.88 µg/mL. The figure for B12 is 1.77 µg/mL; for B13 it is 0.66 µg/mL; for B14 it is 0.63 µg/mL. The figure for B15 is 1.31 µg/mL; for B16 it is 0.78 µg/mL. For the molecule B17, the neutralization concentration (GMC, CPE reduction on Vero C1008 cells) was determined as 1.2 µg/mL. The figure for B18 is 0.011 µg/mL; for B19 it is 0.74 µg/mL. B20: the neutralization concentration (GMC, CPE reduction on Vero C1008 cells) was determined as 0.011 µg/mL.
